{
  "source": "patent US20210283258A1",
  "biological_target": "HER2 receptor (human) (UniProt P04626)",
  "assay": "cell-based or functional assay",
  "details": "scale: % greater uptake compared to the non-targeted nanoparticle",
  "data": [
    {"substance": "Herceptin®-PEG-nitroPBA targeted MAP-CPT nanoparticle (antibody)", "values": [
      {"measurement": "cellular uptake in BT-474 cell line (CPT fluorescence of cell lysate, 30 min at 37° C.)", "value": 70}
    ]}
  ]
}
